Source: patent publication US20210107958A1, “GLYPICAN EPITOPES AND USES THEREOF” (MINOMIC INTERNATIONAL LTD., priority 2015, published 2021)

Experiments:
Format in all cases: binding
human glypican-1 (GPC-1) = assay: PEPSCAN-based ELISA on linear and CLIPS peptide arrays (sets 1-5) spanning GPC-1
From the text: The following human glypican-1 (GPC-1) sequence was used as a basis to generate a library of structured peptides.
To reconstruct discontinuous epitopes of the target molecule a library of structured peptides was synthesized. This was done using Chemically Linked Peptides on Scaffolds (CLIPS) technology. CLIPS technology allowed the generation of structured peptides in single loops, double-loops, triple loops, sheet-like folds, helix-like folds and combinations thereof. CLIPS templates were coupled to cysteine residues. The side-chains of multiple cysteines in the peptides were coupled to one or two CLIPS templates. For example, a 0.5 mM solution of the T2 CLIPS template 1,3-bis (bromomethyl) benzene was dissolved in ammonium bicarbonate (20 mM, pH 7.9)/acetonitrile (1:1(v/v)). This solution was added onto the peptide arrays. The CLIPS template bound to side-chains of two cysteines as present in the solid-phase bound peptides of the peptide-arrays (455 wells plate with 3 μl wells). The peptide arrays were gently shaken in the solution for 30 to 60 minutes while completely covered in solution. Finally, the peptide arrays were washed extensively with excess of H2O and sonicated in disrupt-buffer containing 1 percent SDS/0.1 percent beta-mercaptoethanol in PBS (pH 7.2) at 70° C. for 30 minutes, followed by sonication in H2O for another 45 minutes. The T3 CLIPS carrying peptides were made in a similar way but with three cysteines.
The binding of antibody to each of the synthesized peptides was tested in a PEPSCAN-based ELISA. The peptide arrays were incubated with primary antibody solution (overnight at 4° C.). […] After one hour, the color development was measured. The color development was quantified with a charge coupled device (CCD)-camera and an image processing system.
The values obtained from the CCD camera ranged from 0 to 3000 mAU, similar to a standard 96-well plate ELISA-reader. The results were quantified and stored in the Peplab database. […] The cards were manually inspected and any values caused by an air-bubble were scored as 0. […]

glypican-1 core protein = target: T1, glypican-1 core protein (Homo sapiens, UniProt P35052); assay: 2D electrophoresis and western blotting of DU-145 MPEK extracts
T1 construct: endogenous in cells; host or cells: DU-145 prostate cancer cells (membrane protein extract)
T1 sequence (P35052 24-558): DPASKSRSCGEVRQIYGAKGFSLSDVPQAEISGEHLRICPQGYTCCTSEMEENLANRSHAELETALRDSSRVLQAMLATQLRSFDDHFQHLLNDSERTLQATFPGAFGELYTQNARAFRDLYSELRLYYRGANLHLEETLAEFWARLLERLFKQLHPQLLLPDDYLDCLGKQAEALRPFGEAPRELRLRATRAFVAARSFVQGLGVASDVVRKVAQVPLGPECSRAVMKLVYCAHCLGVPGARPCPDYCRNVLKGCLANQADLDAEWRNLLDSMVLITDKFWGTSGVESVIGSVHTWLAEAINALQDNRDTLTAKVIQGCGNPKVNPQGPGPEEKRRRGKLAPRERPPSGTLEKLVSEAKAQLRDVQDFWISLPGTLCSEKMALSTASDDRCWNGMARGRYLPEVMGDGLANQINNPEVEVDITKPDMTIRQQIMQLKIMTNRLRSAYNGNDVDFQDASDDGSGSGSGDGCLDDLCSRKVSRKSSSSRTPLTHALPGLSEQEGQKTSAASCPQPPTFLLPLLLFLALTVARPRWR
From the text: To confirm that MIL38 recognized glypican-1, prostate cancer DU-145 MPEK extracts were subjected to 2D electrophoresis and western blotting.
Membrane protein extracts (MPEK) of DU-145 prostate cancer cells were separated on 2D gel (pI gradient-horizontal, and molecular mass vertical). Western blots using MIL38 antibody and commercial rGPC-1 rabbit polyclonal antibodies show overlapping reactivity marking a 60Kd protein (circled in FIG. 14). Lane D (FIG. 14) is a one dimension separation for DU-145 extracts as a control. Lane M (FIG. 14) is a one dimension separation lane for molecular size markers as controls.

glypican-1 [1] = target: T2, glypican-1 (Homo sapiens, UniProt P35052); assay: Immunoprecipitation and western blot of DU-145 or C3 (MIL38 negative) MPEK extracts
T2 construct: endogenous in cells; host or cells: DU-145 prostate cancer cells (membrane protein extract)
T2 sequence (P35052 24-558): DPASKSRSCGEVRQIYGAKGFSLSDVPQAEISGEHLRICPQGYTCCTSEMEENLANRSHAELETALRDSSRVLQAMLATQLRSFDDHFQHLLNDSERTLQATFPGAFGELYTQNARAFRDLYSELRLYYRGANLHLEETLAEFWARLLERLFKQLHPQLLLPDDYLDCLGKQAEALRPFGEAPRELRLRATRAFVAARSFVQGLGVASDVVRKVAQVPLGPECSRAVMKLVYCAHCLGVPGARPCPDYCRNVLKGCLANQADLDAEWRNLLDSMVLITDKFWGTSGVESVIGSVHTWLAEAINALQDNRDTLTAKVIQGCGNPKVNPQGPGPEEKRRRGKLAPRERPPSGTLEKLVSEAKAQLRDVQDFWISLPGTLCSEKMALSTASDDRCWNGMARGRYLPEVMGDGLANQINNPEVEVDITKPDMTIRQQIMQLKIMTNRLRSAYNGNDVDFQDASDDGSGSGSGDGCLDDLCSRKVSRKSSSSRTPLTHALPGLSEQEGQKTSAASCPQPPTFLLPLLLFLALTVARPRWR
From the text: MIL38 or rabbit anti-GPC-1 antibodies were used to immunoprecipitate their respective antigens from DU-145 or C3 (MIL38 negative) MPEK extracts. The immunoprecipitates (IPs) were western blotted with either MIL38 or anti-GPC-1 antibody (FIG. 15).
MIL38 and rabbit anti-GPC-1 antibodies were each used to immunoprecipitate their antigens from DU-145 prostate cancer or C3 (MIL38 negative) cell membrane protein extracts. Shown are the western blots of the immunoprecipitations detected with either MIL38 or anti-GPC-1 antibody. FIG. 15A depicts GPC1 detection of MIL38 immunoprecipitates (left) and MIL38 detection of GPC1 immunoprecipitates (right). FIG. 15B depicts MIL38 detection of MIL38 immunoprecipitates as a control. Lanes are: Magic Mark-commercial protein marker as control; DU145 MPEK-prostate cancer membrane protein extract (not immunoprecipitated); DU145 FT-prostate cancer flow through from immune precipitation; DU145 IP-immunoprecipitate using antibody; C3 MPEK-(MIL38 negative) control membrane protein extract (not immunoprecipitated); C3 FT-flow through from immune precipitation; C3 IP elution-(MIL38 negative) immunoprecipitate using antibody. MIL38 can detect the immunoprecipitate from rGPC1 antibody and vice versa. MIL38 can also bind to all controls including DU145 MPEK and to IP conducted by MIL38.

glypican-1 [2] = target: T3, glypican-1 (Homo sapiens, UniProt P35052); assay: MIL38 immunoprecipitation and western blot of plasma samples (normal and prostate cancer patient)
T3 construct: from tissue; host or cells: human plasma (patients 042 and 046), with or without heparinase treatment
T3 sequence (P35052 24-530 limits assumed): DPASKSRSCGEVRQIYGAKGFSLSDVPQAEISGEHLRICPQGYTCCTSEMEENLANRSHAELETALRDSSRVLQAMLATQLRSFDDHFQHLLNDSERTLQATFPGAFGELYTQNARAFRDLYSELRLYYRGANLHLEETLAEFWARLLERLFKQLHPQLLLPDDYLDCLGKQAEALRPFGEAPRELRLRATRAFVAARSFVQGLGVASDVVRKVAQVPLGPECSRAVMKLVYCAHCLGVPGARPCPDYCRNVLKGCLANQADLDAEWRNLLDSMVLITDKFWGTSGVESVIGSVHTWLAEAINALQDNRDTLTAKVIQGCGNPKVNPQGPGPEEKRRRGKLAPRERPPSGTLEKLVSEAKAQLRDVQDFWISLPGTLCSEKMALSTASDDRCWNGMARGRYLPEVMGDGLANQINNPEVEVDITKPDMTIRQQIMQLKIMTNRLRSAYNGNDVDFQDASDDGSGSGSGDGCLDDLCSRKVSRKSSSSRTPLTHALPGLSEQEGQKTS
From the text: Plasma samples from one normal patient (042) and one prostate cancer patient (046) were immunoprecipitated with MIL38 antibody and the IP sample western blotted with MIL38 and anti-GPC-1 antibodies (FIG. 16A).

MIL38 antigen = target: T4, MIL38 antigen (Homo sapiens, UniProt P35052); assay: Western blot of membrane protein extracts from normal prostate and prostate cancer; settings: equivalent amounts of protein
T4 construct: tissue Novus Bio; host or cells: membrane protein extracts of normal prostate and prostate cancer
T4 sequence (P35052 24-558): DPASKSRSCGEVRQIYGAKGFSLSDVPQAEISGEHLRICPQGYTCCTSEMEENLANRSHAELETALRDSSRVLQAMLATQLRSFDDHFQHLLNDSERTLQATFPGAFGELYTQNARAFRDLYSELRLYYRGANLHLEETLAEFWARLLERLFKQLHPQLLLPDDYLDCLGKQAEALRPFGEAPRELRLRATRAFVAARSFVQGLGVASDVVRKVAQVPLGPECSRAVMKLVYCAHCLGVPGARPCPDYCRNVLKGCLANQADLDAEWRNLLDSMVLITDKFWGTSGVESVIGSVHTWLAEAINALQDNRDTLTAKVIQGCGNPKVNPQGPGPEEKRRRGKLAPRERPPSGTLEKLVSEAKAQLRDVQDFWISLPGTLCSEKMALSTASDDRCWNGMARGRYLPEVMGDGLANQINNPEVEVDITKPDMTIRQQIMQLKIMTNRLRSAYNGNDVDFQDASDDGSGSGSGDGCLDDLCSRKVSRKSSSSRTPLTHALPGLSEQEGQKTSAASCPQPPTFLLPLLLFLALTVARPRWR
From the text: To determine if MIL38 antigen could be detected in membrane protein extracts from normal prostate and prostate cancer, one sample of each was obtained from Novus Bio. Equivalent amounts of protein were western blotted using MIL38 antibody (FIG. 16B).

B1: MIL38-AM4: Murine anti human glypican 1 monoclonal antibody produced by hybridoma cells deposited at Cellbank Australia under accession number CBA20140026 (antibody)
heavy: QIQLVQSGPELKKPGETVKISCKASGYAFTDYSMNWVKQAPGKGLRWMGWINTETGEPTYTDDFKGRFAFSLETSASTAFLQINNLRNEDTATYFCARHYDYGGFPYWGQGTLVTVSAAKTTPPSVYPLAPGSAAQTNSMVTLGCLVKGYFPEPVTVTWNSGSLSSGVHTFPAVLQSDLYTLSSSVTVPSSTWPSETVTCNVAHPASSTKVDKKIVPRDCGCKPCICTVPEVSSVFIFPPKPKDVLTITLTPKVTCVVVDISKDDPEVQFSWFVDDVEVHTAQTQPREEQFNSTFRSVSELPIMHQDWLNGKEFKCRVNSAAFPAPIEKTISKTKGRPKAPQVYTIPPPKEQMAKDKVSLTCMITDFFPEDITVEWQWNGQPAENYKNTQPIMDTDGSYFVYSKLNVQKSNWEAGNTFTCSVLHEGLHNHHTEKSLSHSPGK
light: DIQMTQSPASLSASVGETVTITCRASGNVHNYLAWYQQKQGKSPQLLVYTAKTLADGVPSRFSGSGSGTQYSLKINSLQPEDFGTYYCQHFWSNPWTFGGGTKLEIKRADAAPTVSIFPPSSEQLTSGGASVVCFLNNFYPKDINVKWKIDGSERQNGVLNSWTDQDSKDSTYSMSSTLTLTKDEYERHNSYTCEATHKTSTSPIVKSFNRNEC
ELISA response versus antibody concentration (human glypican-1 (GPC-1); 1 μg/ml and 10 μg/ml, normal stringency): concentration dependent response | saturation of ELISA signal (human glypican-1 (GPC-1); 10 μg/ml): saturation was not observed | stretches / common cores of GPC-1 recognized on the peptide arrays (human glypican-1 (GPC-1); peptide sets 1-5 (linear, loop, helical, sheet)): 135TQNARAFRD143 (SEQ ID NO: 7) and 348[…]358 (SEQ ID NO: 2) | molecular weight of protein detected (glypican-1 core protein): 60 kDa | depletion of MIL38 and anti-GPC-1 antigens by immunoprecipitation (glypican-1 [1]; DU-145 MPEK flow through): almost complete depletion | reactive band detected in the other antibody's immunoprecipitate (glypican-1 [1]; DU-145 MPEK, IP with one antibody, blot with the other): 60 kDa | specific bands detected in plasma immunoprecipitates (glypican-1 [2]; MIL38 IP of both plasma samples): approx. 70 kDa | signal in prostate cancer patient plasma compared to normal patient plasma (glypican-1 [2]; patient 046 vs 042): markedly higher | expression of MIL38 antigen in prostate cancer extract versus normal prostate sample (MIL38 antigen): much higher
